Assay results taken from patent US20250250357A1 (NANJING ZAIMING PHARMACEUTICAL, published 2025).
Positions count from the first letter of the chain named.

B1: F7.33.24-H10 (scFv, not shown: small tags and cut ends)
scFv: EVQLVQSGAEVKKPGASVKVSCKASGYTFTSYWMHWVRQAPGQGLEWMGNVNPSNAGSNYNEKFKNRVTITVDKSASTAYMELSSLRSEDTAVYYCAPHYIGSRPGFAYWGQGTLVTVSSGGGGSGGGGSGGGGSDIVMTQSPDSLAVSLGERATINCKASQNVGTNIAWYQQKPGQSPKALIYSASYRYSGVPDRFSGSGSGTDFTLTISSLQAEDVAVYYCQQYNSYPLTFGGGTKVEIK
notes: also called S009-F7.33.24 humanized antibody VH2a + VL1
B2: F7.33.24-H2 (scFv, not shown: small tags and cut ends)
scFv: EVQLVQSGAEVKKPGASVKVSCKASGYTFTSYWMHWVRQAPGQRLEWMGNVNPSNGGSNYNEKFKNRVTITVDKSASTAYMELSSLRSEDTAVYYCAPHYIGSRPGFAYWGQGTLVTVSSGGGGSGGGGSGGGGSDIVMTQTPLSLSVTPGQPASISCKASQNVGTNIAWYLQKPGQSPQALIYSASYRYSGVPDRFSGSGSGTDFTLKISRVEAEDVGVYYCQQYNSYPLTFGGGTKVEIK
notes: also called S009-F7.33.24 humanized antibody VH1 + VL2
B3: F7.33.24-H3 (scFv, not shown: small tags and cut ends)
scFv: B2 scFv with L172Q
notes: also called S009-F7.33.24 humanized antibody VH1 + VL3
B4: F7.33.24-H5 (scFv, not shown: small tags and cut ends)
scFv: B2 scFv with N55S
notes: also called S009-F7.33.24 humanized antibody VH1a + VL2
B5: F7.33.24-H6 (scFv, not shown: small tags and cut ends)
scFv: B2 scFv with N55S, L172Q
notes: also called S009-F7.33.24 humanized antibody VH1a + VL3
B6: F7.33.24-H8 (scFv, not shown: small tags and cut ends)
scFv: B2 scFv with R44G
notes: also called S009-F7.33.24 humanized antibody VH2 + VL2
B7: F7.33.24-H9 (scFv, not shown: small tags and cut ends)
scFv: B2 scFv with R44G, L172Q
notes: also called S009-F7.33.24 humanized antibody VH2 + VL3
B8: F7.33.24-H11 (scFv, not shown: small tags and cut ends)
scFv: B2 scFv with R44G, G56A
notes: also called S009-F7.33.24 humanized antibody VH2a + VL2
B9: F7.33.24-H12 (scFv, not shown: small tags and cut ends)
scFv: B2 scFv with R44G, G56A, L172Q
notes: also called S009-F7.33.24 humanized antibody VH2a + VL3
B10: F7.33.24 (scFv, not shown: small tags and cut ends)
scFv: QVQLQQPGTELVKPGASVKLSCKASGYTFTSYWMHWVKQRPGQGLEWIGNVNPSNGGSNYNEKFKNKATLTVDKSSSTADMQLNSLTSEDSAVYYCAPHYIGSRPGFAYWGQGTLVTVSGGGGGSGGGGSGGGGSDIVMTQSQKFMSTSVGDRVSVTCKASQNVGTNIAWYQQKPGQSPKALIYSASYRYSGVPDRFTGSGSGTDFTLTITNVQSEDLAEYFCQQYNSYPLTFGGGTKVEIK
notes: also called S009-F7.33.24 (parental variable regions, in the humanized-antibody ELISA)

Columns and labels:
[1] = target: T1, human MSLN-hFc protein (Acro, Cat. No. MSN-H5253) (human, UniProt Q13421 296-580); experiment: ELISA on coated antigen, antibody 0.01 nM
T1 construct: the method names the coated protein as human MSLN-hFc (Acro); also called human MSLN full-length protein

[2] = target: T1, human MSLN-hFc protein (Acro, Cat. No. …); experiment: ELISA on coated antigen, antibody 100 nM
human MSLN-R3 protein [3] = target: T2, human MSLN-R3 protein (human, UniProt Q13421 487-598); experiment: ELISA on coated antigen, antibody 100 nM
T2 construct: also called hMSLN-R3

[4] = target: T1, human MSLN-hFc protein (Acro, Cat. No. …); experiment: ELISA on coated antigen, antibody 0.001 nM
[5] = target: T1, human MSLN-hFc protein (Acro, Cat. No. …); experiment: ELISA on coated antigen, antibody 0.1 nM
[6] = target: T1, human MSLN-hFc protein (Acro, Cat. No. …); experiment: ELISA on coated antigen, antibody 10 nM
human MSLN-R3 protein [7] = target: T2, human MSLN-R3 protein; experiment: ELISA on coated antigen, antibody 0.0001 nM
human MSLN-R3 protein [8] = target: T2, human MSLN-R3 protein; experiment: ELISA on coated antigen, antibody 0.01 nM
human MSLN-R3 protein [9] = target: T2, human MSLN-R3 protein; experiment: ELISA on coated antigen, antibody 0.1 nM
human MSLN-R3 protein [10] = target: T2, human MSLN-R3 protein; experiment: ELISA on coated antigen, antibody 0.001 nM
[11] = target: T1, human MSLN-hFc protein (Acro, Cat. No. …); experiment: ELISA on coated antigen, antibody 0.0001 nM
human MSLN-R3 protein [12] = target: T2, human MSLN-R3 protein; experiment: ELISA on coated antigen, antibody 10 nM
[13] = target: T1, human MSLN-hFc protein (Acro, Cat. No. …); experiment: ELISA on coated antigen, antibody 1 nM
human MSLN-R3 protein [14] = target: T2, human MSLN-R3 protein; experiment: ELISA on coated antigen, antibody 1 nM

T2 sequence (Q13421 495-606, form in doubt): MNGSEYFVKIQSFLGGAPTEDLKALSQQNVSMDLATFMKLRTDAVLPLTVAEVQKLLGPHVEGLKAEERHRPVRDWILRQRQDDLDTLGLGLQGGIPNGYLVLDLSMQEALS
T1 sequence (Q13421 other isoform, or with tags, fused parts or gaps limits assumed): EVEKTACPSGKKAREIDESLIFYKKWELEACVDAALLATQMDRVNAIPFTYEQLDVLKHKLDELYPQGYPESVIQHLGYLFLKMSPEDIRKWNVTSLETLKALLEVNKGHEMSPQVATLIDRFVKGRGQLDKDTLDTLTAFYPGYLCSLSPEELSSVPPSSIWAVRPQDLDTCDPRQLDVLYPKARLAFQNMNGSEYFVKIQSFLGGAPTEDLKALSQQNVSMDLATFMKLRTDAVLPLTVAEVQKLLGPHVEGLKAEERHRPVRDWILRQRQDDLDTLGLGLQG

| Binder | OD450 [1] [OD450] | OD450 [2] [OD450] | OD450 (human MSLN-R3 protein [3]) [OD450] | OD450 [4] [OD450] | OD450 [5] [OD450] | OD450 [6] [OD450] | OD450 (human MSLN-R3 protein [7]) [OD450] | OD450 (human MSLN-R3 protein [8]) [OD450] | OD450 (human MSLN-R3 protein [9]) [OD450] | OD450 (human MSLN-R3 protein [10]) [OD450] | OD450 [11] [OD450] | OD450 (human MSLN-R3 protein [12]) [OD450] | OD450 [13] [OD450] | OD450 (human MSLN-R3 protein [14]) [OD450] |
| --- | --- | --- | --- | --- | --- | --- | --- | --- | --- | --- | --- | --- | --- | --- |
| B1 | 0.05 | 3.03 | 2.26 | 0.04 | 0.09 | 2.28 | 0.05 | 0.04 | 0.08 | 0.05 | 0.04 | 1.85 | 0.51 | 0.55 |
| B2 | 0.05 | 2.91 | 1.9 | 0.05 | 0.08 | 2.07 | 0.04 | 0.04 | 0.06 | 0.04 | 0.05 | 1.62 | 0.4 | 0.42 |
| B3 | 0.06 | 2.93 | 1.91 | 0.05 | 0.13 | 2.58 | 0.04 | 0.04 | 0.13 | 0.04 | 0.05 | 1.86 | 0.91 | 0.89 |
| B4 | 0.04 | 2.85 | 1.92 | 0.05 | 0.07 | 1.91 | 0.04 | 0.04 | 0.06 | 0.04 | 0.05 | 1.53 | 0.33 | 0.39 |
| B5 | 0.05 | 2.96 | 1.98 | 0.05 | 0.08 | 2.36 | 0.04 | 0.04 | 0.07 | 0.04 | 0.05 | 1.74 | 0.45 | 0.53 |
| B6 | 0.05 | 2.7 | 2.16 | 0.05 | 0.09 | 2.04 | 0.05 | 0.05 | 0.09 | 0.04 | 0.05 | 1.92 | 0.48 | 0.63 |
| B7 | 0.05 | 2.78 | 2.25 | 0.04 | 0.1 | 2.49 | 0.04 | 0.05 | 0.11 | 0.04 | 0.05 | 2.08 | 0.66 | 0.82 |
| B8 | 0.04 | 2.65 | 2.1 | 0.04 | 0.09 | 2.18 | 0.05 | 0.05 | 0.09 | 0.04 | 0.04 | 1.94 | 0.57 | 0.68 |
| B9 | 0.04 | 2.65 | 2.04 | 0.04 | 0.1 | 2.28 | 0.04 | 0.04 | 0.09 | 0.04 | 0.05 | 1.95 | 0.58 | 0.65 |
| B10 | 0.21 | 2.58 | 1.92 | 0.26 | 0.06 | 1.63 | 0.04 | 0.04 | 0.09 | 0.04 | 0.04 | 1.78 | 0.27 | 0.71 |
